The source of these data is PMC11137118, “Liver and pancreatic-targeted interleukin-22 as a therapeutic for metabolic dysfunction-associated steatohepatitis” (Nature Communications, 2024).

The data set deals with the molecule itself. Kind of data set: SEC + other: Western blot; HPLC-SEC: 50 uL of purified protein at 0.5 mg/mL on TSKgel 3000SWXL, 0.8 mL/min, PBS + 200 mM NaCl (pH 7.3), gel filtration standard for apparent molecular weight; Western blot conditions not told. In general terms: In western blotting, separated proteins are transferred to a membrane and probed.

B1: human IL-22 (hIL-22) (ligand, UniProt Q9GZX6 34-179, looked up)
chain: APISSHCRLDKSNFQQPYITNRTFMLAKEASLADNNTDVRLIGEKLFHGVSMSERCYLMKQVLNFTLEEVLFPQSDRFQPYMQEVVPFLARLSNRLSTCHIEGDDLHIQRNVQKLKDTVKKLGESGEIKAIGELDLLFMSLRNACI
notes: interleukin-22, human; codon optimised; the IL-22 stretch is then probably the mature protein; also called native hIL-22; native human IL-22; source: CHO-S, transiently transfected, secreted, purified (HisTrap Excel, HiTrap Q flow-through)
One may read the stoichiometry N as the number of molecules, sites or subunits per partner or assembly. B1: the “stoichiometry N” value turned out to be 2.

B2: hIL-22-GLP1 (human IL-22 fused to a GLP1 receptor binding protein) (other)
chain: APISSHCRLDKSNFQQPYITNRTFMLAKEASLADNNTDVRLIGEKLFHGVSMSERCYLMKQVLNFTLEEVLFPQSDRFQPYMQEVVPFLARLSNRLSTCHIEGDDLHIQRNVQKLKDTVKKLGESGEIKAIGELDLLFMSLRNACI
Consider B2, for which the “stoichiometry N” value was determined as 2.
